Where a chain is given by its changes, count along the chain named.
B1: SRP2194-A01 (antibody, IgG1, V domains shown)
VH: EVQLVESGGGLVQPGGSLRLSCAASGFNITGYYIHWVRQAPGKGLEWVGYISPLAGNTYHADSVKGRFNISADTSKNTAYLQMNSLRAEDTAVYYCARDSRRYVRPMDYWGQGTLVTVSS
VL: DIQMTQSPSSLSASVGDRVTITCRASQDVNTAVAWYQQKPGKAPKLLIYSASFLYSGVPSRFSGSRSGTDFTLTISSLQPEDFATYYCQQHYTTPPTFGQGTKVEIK
notes: His/FLAG-tagged IgG1, cell-free
B2: SRP2196-B08 (antibody, V domains shown)
VH: B1 VH with Y50Q, L54N, A55S, N57Y, H60L, N69T, P106G, M107W
VL: QAVVTQESALTTSPGETVTLTCRSSTGAVTTSNYANWVQEKPDHLFTGLIGGTNKRAPGVPARFSGSLIGDKAALTITGAQTEDEAIYFCALWYSNLWVFGGGTKLTVL
notes: His/FLAG-tagged IgG1
B3: SRP2194-A02 (antibody, IgG1, V domains shown)
VH: B1 VH with N69T, M107F
VL: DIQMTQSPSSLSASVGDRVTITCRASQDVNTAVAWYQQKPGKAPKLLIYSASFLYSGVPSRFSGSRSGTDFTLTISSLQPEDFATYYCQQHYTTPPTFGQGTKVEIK
notes: as for B1
B4: SRP2196-A04 (antibody, V domains shown)
VH: EVQLVESGGGLVQPGGSLRLSCAASGFNISPYYIHWVRQAPGKGLEWVGQIYPISGHTYQADSVKGRFTISADTSKNTAYLQMNSLRAEDTAVYYCARESRRYVGPFGYWGQGTLVTVSS
VL: B2 VL
notes: His/FLAG-tagged IgG1
B5: SRP2196-A03 (antibody, V domains shown)
VH: B1 VH with G31Q, Y33H, L54N, A55S, N57S, Y59H, H60E, N69T, P106G, M107W
VL: B2 VL
notes: His/FLAG-tagged IgG1; also called Antibody 150
B6: SRP2194-B02 (antibody, IgG1, V domains shown)
VH: B1 VH with T30S, A40T, N69T, M107L
VL: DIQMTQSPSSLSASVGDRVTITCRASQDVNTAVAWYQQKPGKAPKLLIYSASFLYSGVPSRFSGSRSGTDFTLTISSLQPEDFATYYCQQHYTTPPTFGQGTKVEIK
notes: as for B1
B7: SRP2194-B03 (antibody, IgG1, V domains shown)
VH: B1 VH with G31S, N69T, M107F
VL: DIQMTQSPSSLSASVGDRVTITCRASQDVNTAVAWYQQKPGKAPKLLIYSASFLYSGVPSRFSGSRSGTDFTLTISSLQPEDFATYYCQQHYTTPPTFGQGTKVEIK
notes: as for B1
B8: SRP2196-A07 (antibody, V domains shown)
VH: B1 VH with Y50Q, L54N, A55S, N57S, H60Y, N69T, N84S, P106G, M107W
VL: B2 VL
notes: His/FLAG-tagged IgG1
B9: SRP2196-B05 (antibody, V domains shown)
VH: B1 VH with Y50Q, L54N, A55S, N57A, N69T, P106G, M107W
VL: B2 VL
notes: His/FLAG-tagged IgG1
B10: SRP2194-A06 (antibody, IgG1, V domains shown)
VH: B1 VH with G31D, N69P, M107F
VL: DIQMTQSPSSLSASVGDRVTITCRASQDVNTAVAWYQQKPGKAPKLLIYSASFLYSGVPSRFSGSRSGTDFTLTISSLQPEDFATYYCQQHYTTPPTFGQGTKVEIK
notes: as for B1
B11: SRP2196-A05 (antibody, V domains shown)
VH: B1 VH with G31N, L54N, A55S, N57A, H60Q, N69T, P106S, M107W
VL: B2 VL
notes: His/FLAG-tagged IgG1
B12: SRP2196-A02 (antibody, V domains shown)
VH: B1 VH with Y50Q, L54N, A55S, N57A, Y59H, H60D, N69T, P106G, M107W
VL: B2 VL
notes: His/FLAG-tagged IgG1
B13: SRP2196-A06 (antibody, V domains shown)
VH: B1 VH with Y50Q, L54N, A55S, N57S, Y59H, H60Q, N69T, E89G, P106G, M107W
VL: B2 VL
notes: His/FLAG-tagged IgG1

Target: T1, human ROR1 (hROR1) (human, UniProt Q01973 30-937)
T1 construct: On HCT116-hROR1 transfectants, Mino cells or Ntera-2 cells, as the assay of each row says; also called receptor tyrosine kinase like orphan receptor 1
Test: flow cytometry, HCT116-hROR1 cells
Experimental: A mix of ROR1 positive and negative cells was prepared as follows. Ror1 negative cells were washed 2× in PBS then incubated in PBS containing 1 nM CellTrace™ Oregon Green488® (Life Technologies) at 37° C. for 30 minutes. Cells were then washed 2× with RPMI w/10% fetal calf serum (or FCS), washed 2× with FACS buffer (PBS+0.5% BSA), suspended thoroughly in ice-cold FACS buffer at a final concentration of 4×10^6 cells/ml and kept on ice. ROR1 positive cells were washed 2× in PBS and suspended with ice-cold FACS buffer at 4×10^6 cells/ml. ROR1 positive and negative cells were then mixed to obtain a 1-1 cell suspension and seeded at 50 μl per well on 96 well polypropylene plates. 50 μl of 6-12 point dilutions of anti-ROR1 variants starting from concentrations of ˜100-200 nM antibody was dispensed using BioMekFX (Beckman Coulter) into each well. Cells were then incubated on ice for 1 hr, washed with FACS buffer and incubated for 1 hr on ice with 50 μl FACS buffer containing 2.5 μg/ml Alexa647-conjugated Goat Anti-Human IgG dispensed using BioMekFX (Beckman Coulter). Cells were then washed 2× with FACS buffer and fixed for 10 minutes in 200 μl PBS with 2% PFA prior to fluorescence detection. Samples were acquired using a Beckton Dickinson LSRII FACS. Mean Fluorescence Intensity of ROR1 antibody binding was analyzed using FlowJo® software (Tree Star, Inc.).

Compared with B1, B2 is higher in “Bmax (MFI)” value: 9010 MFI for the first, 14400 MFI for the second.

First: B3
Second: B4
The “Bmax (MFI)” value of the first is lower: 9220 MFI for the first, 14200 MFI for the second.

Going from B5 to B6, the “Bmax (MFI)” value falls from 15400 MFI to 9330 MFI.

Compared with B7, B8 is higher in “Bmax (MFI)” value: 9480 MFI for the first, 14100 MFI for the second.

Compared with B9, B10 is lower in “Bmax (MFI)” value: 14800 MFI for the first, 9050 MFI for the second.

First: B11
Second: B12
The “Bmax (MFI)” value of the first is lower: 14800 MFI for the first, 15200 MFI for the second.

For B13, the “Bmax (MFI)” value was 14600 MFI.

Compared with B1, B2 is 1.7-fold higher in Kd: 120 pM for the first, 200 pM for the second.

B3 and B4 are within 1.5-fold of each other in Kd: 140 pM for the first, 100 pM for the second.

Going from B5 to B6, the Kd falls from 300 pM to 150 pM (2-fold).

B7 and B8 are within 1.5-fold of each other in Kd: 180 pM for the first, 200 pM for the second.

First: B9
Second: B10
The Kd of the first is 2.5-fold lower: 200 pM for the first, 490 pM for the second.

First: B11
Second: B12
The Kd of the first is 1.5-fold higher: 300 pM for the first, 200 pM for the second.

In the case of B13, the Kd is reported as 200 pM.

Target: T2, human ROR1 Frizzled domain (hROR1-Fz) (human, UniProt Q01973 165-305)
T2 construct: Acro Biosystems, made in HEK293
Test: SPR Biacore, IgG on anti-Fc, ROR1-Fz analyte
Experimental: Anti-Fc polyclonal antibodies were immobilized onto a CMS chip (GE Life Sciences) using amine coupling chemistry (from Amine Coupling Kit, GE Life Sciences). The immobilization steps were carried out at a flow rate of 25 μL/min in 1×HBS-EP+buffer (GE Life Sciences; 10× Stock diluted before use). The sensor surfaces were activated for 7 min with a mixture of NHS (0.05 M) and EDC (0.2 M). The Anti-Fc antibodies were injected over all 4 flow cells at a concentration of 25 ug/ml in 10 mM sodium acetate, pH 4.5, for 7 min. Ethanolamine (1 M, pH 8.5) was injected for 7 min to block any remaining activated groups.
Off-rate and kinetic binding experiments were performed at 25° C. using 1×HBS-EP+buffer. Test and control antibodies were injected over the anti-Fc surface at concentrations of 5-10 μg/mL for 12 seconds at a flow rate of 10 μL/min on flow cells 2, 3 and 4, followed by a buffer wash for 30 seconds at the same flow rate. […] After capturing ligand (antibody) on the anti-Fc surface, the analyte (hROR1, Fz or Kr domains, Acro Biosystems, Delaware) was bound for 180 seconds, followed by a 600 second dissociation phase at a flow rate of 50 μL/min. Between each ligand capture and analyte binding cycle, regeneration was carried out using 2 injections of 10 mM Glycine pH 2.0 for 30 seconds at 30 μL/min, followed by a 30 second buffer wash step.

Going from B1 to B2, the Kd rises from 1070 pM to 3130 pM (2.9-fold).

Going from B3 to B4, the Kd rises from 1390 pM to 2460 pM (1.8-fold).

First: B5
Second: B6
The Kd of the first is 1.7-fold lower: 1630 pM for the first, 2770 pM for the second.

First: B7
Second: B8
The Kd of the first is 2.4-fold lower: 1420 pM for the first, 3440 pM for the second. The first binds more tightly here.

B10 and B11 are within 1.5-fold of each other in Kd: 3750 pM for the first, 3900 pM for the second.

Work on B13 yielded a Kd of 3820 pM.

Compared with B1, B2 is 1.5-fold higher in koff: 0.000325 s⁻¹ for the first, 0.000488 s⁻¹ for the second.

B3 and B4 are within 1.5-fold of each other in koff: 0.000429 s⁻¹ for the first, 0.000343 s⁻¹ for the second.

Going from B5 to B6, the koff rises from 0.000275 s⁻¹ to 0.00071 s⁻¹ (2.6-fold).

First: B7
Second: B8
The koff of the first is 2.2-fold lower: 0.000295 s⁻¹ for the first, 0.00064 s⁻¹ for the second.

First: B10
Second: B11
The koff of the first is 2.8-fold higher: 0.00193 s⁻¹ for the first, 0.000682 s⁻¹ for the second.

For B13, the koff was 0.00069 s⁻¹.

Compared with B1, B2 is 1.9-fold lower in kon: 304000 M⁻¹ s⁻¹ for the first, 156000 M⁻¹ s⁻¹ for the second.

Compared with B3, B4 is 2.2-fold lower in kon: 308000 M⁻¹ s⁻¹ for the first, 139000 M⁻¹ s⁻¹ for the second.

First: B5
Second: B6
The kon of the first is 1.5-fold lower: 169000 M⁻¹ s⁻¹ for the first, 256000 M⁻¹ s⁻¹ for the second.

B7 and B8 are within 1.5-fold of each other in kon: 207000 M⁻¹ s⁻¹ for the first, 186000 M⁻¹ s⁻¹ for the second.

Going from B10 to B11, the kon falls from 516000 M⁻¹ s⁻¹ to 175000 M⁻¹ s⁻¹ (2.9-fold).

Binder B13 has a kon of 180000 M⁻¹ s⁻¹.
